Experimental data from PMC10120734.

Target: free UbcH8 (Ube2L6), GST tag removed (human)
Assay: SAXS

stoichiometry N: 2
Substance: free UbcH8 (Ube2L6), GST tag removed (enzyme)
